Experimental data: paper PMC7901972

Target: thrombin

recombinant AsKunitz (natural protein)
inhibition of the enzymatic activity of thrombin on a chromogenic substrate (Vmax against the reaction without inhibitor), IC50: 650 nM
